According to publication PMC8410055:

Target: SARS-CoV-2 spike protein expressed on transfected HEK293T cells (UniProt P0DTC2)
Assay: flow cytometry on cells

For “L-SIGN/Fc: extracellular domain of L-SIGN (amino acids 78–399) fused to the human IgG2 Fc domain (from UniProt Q9H2X3) EPN>QPD”, the response (% Fc binding (positive population)) was 1.58.
